What was measured:
[1] = test system: neutrophils; test: Neutrophil rolling/adhesion, coated capillaries and intravital microscopy of cremaster; parameters: species or system mouse; conditions: in vitro and in vivo
Method: Mice were anesthetized, and cremasal tissue was dissected under a Nikon 20×water immersion lens (NA=0.32). Neutrophils were resuspended with 20 μl of anti-Ly6G (Biolegend 127608) and platelets with 20 μl of platelet-specific FITC-labeled X488 antibody (emfret, Eibelstadt, Germany) in 200 μl and administered i.v. Videos of postcapillary cremaster venules 20-40 μm in diameter were recorded using a Hamamatsu Orca Flash 4.0 camera mounted on a dual-emission image splitter (optoSplit II, Cairn Research; UK) at a rate of 16 frames/s (for videos totaling 10 seconds) and with a resolution of 2048×1024 pixels mounted on a Nikon Eclipse Ci-L microscope (Nikon, Dusseldorf; Germany) operated by NIS elements Ar software. Videos were recorded before administration of rmSema7a i.v., and videos were recorded at 20-second intervals for 5 minutes after incubation for 15 minutes. Neutrophil velocity (μm/sec) was calculated from manually tracked cells, stationary neutrophils were counted (cell count/mm^2), platelet sedimentation on the vessel wall was measured (normalized MFI %/mm), transmigrated cells from the vasculature after 15 min exposure to rmSema7a were counted (cell count/mm^2), the distance of transmigrated cells measured in μm in all videos was calculated using NIS elements Ar software 4.20-64 bit processed (Nikon, Dusseldorf, Germany).

[2] = test system: WT platelets; test: Flow chamber: thrombus formation on collagen in flow, whole-blood perfusion; format: cell-based, mouse
Method: (§1) Platelet adhesion in flow was measured by perfusion of murine whole blood on collagen-coated coverslips (200 μg/ml fibrillar type I collagen) at 1000 s^−1 or 400 s^−1, as indicated. Platelets were labeled with a DyLight 488-conjugated anti-GPIX Ig derivative ([…]) and treated with rmSema7a or IgG2A Fc for 5 minutes at 37° C. before perfusion. In the case of treatment with GPlb-blocking antibody, 100 μg/mouse p0p/B Fab was injected intravenously 20 minutes before blood collection for the experiment. In further experiments, blood from animals with […] GPlb (GPlb-IL4tg) was used.

[3] = test system: WT animals; test: Murine myocardial ischemia and reperfusion model, rmSema7a injected into WT animals; format: in vivo, mouse
Method: This animal model has been described in detail in the prior art. Subgroups of animals received either recombinant mouse Sema7a (rmSema7a) or recombinant mouse IgG2A Fc (rmlgG2A Fc; control) intravenously before the start of the experiment or Sema7a antibody (abcam ab23578, Cambridge, UK; anti-Sema7a) or as control rabbit IgG sc-2027 (Santa Cruz Biotechnology, Santa Cruz, USA) 5 minutes before the start of reperfusion.
The Vectastain ABC kit (Linaris, Wertheim, Germany) was used for immunohistochemical staining. After inhibition of the nonspecific binding sites with avidin blocking solution (Vector), the sections were incubated with primary antibodies (rabbit anti-mouse CD41, abcam, Cambridge, UK) overnight at 4° C. Tissue sections were then incubated with biotinylated rabbit anti-IgG for 1 hour, followed by Vectastain ABC reagent for 30 minutes, then developed over DAB substrate. For PMN staining, the procedure was repeated using rat anti-mouse neutrophil antibody (BioRad, Serotec, Puchheim, Germany) and HistoGreen as substrate (Linaris, Wertheim, Germany). Counterstaining was performed with Nuclear Fast Red (Linaris, Wertheim, Germany). Histological sections were analyzed for the presence of PNCs by manual counting within 3 independent tissue sections of each animal at a magnification of […].
(§2) Troponin blood plasma levels of samples collected by central venous puncture after 120 minutes of reperfusion were measured for murine troponin I type 3 (TNNI3) using the SEA478Mu ELISA kit (Cloud-Clone Corp, Houston, USA).
For flow cytometric analysis, the following antibodies were used and freshly prepared before the experiment: rat anti-mouse Ly6G (Biolegend, clone 1A8) labeled with BV421 (Biolegend 127628), rat anti-mouse CD42b-FITC (Emfret, clone Xia.G5), rat anti-mouse CD62P (BD Pharmingen, clone RB40.34) labeled with Alexa Fluor 647 (BD 563674), rat anti-mouse activated GPIlb/IIIa-PE (Emfret, clone JON/A).
After staining, sampling focused peripheral granulocytes by their granularity and surface expression of the lymphocyte antigen-6 complex, locus G (Ly-6G), referred to as SSC/Ly-6G+. The presence of the platelet surface marker CD42b on the surface of SSC/Ly-6G+ events distinguished SSC/Ly-6G+/CD42b+ platelet-neutrophil complexes (PNCs) from freely circulating SSC/Ly-6G+/CD42b- PMNs. These two populations were tested for their representation of the surface transmembrane glycoprotein P-selectin (CD62P) and activated GPIlb/IIIa (clone JON/A) (not shown).

[4] = test system: Sema7a^loxP/loxP HBBCre+ animals; test: Murine myocardial ischemia and reperfusion model, reconstitution of Sema7a loxP/loxP HbbCre+ animals with rmSema7a; format: in vivo, mouse
From the text: Sema7a^−/−mice were generated, validated and characterized as described in the prior art. The corresponding WT controls were bred as littermates of the Sema7a mice. In a subset of experiments, a newly generated Sema7a flox mouse line (Sema7a^loxP/loxP/Ozgene) on a C57BL/6 background was crossed with the following Cre recombinase-positive mouse lines to obtain tissue-specific gene deletion: Erythrocyte-specific HbbCre+, myocardial cell-specific Myh6Cre+; endothelial cell-specific Tie2Cre+; and immune cell-specific LysMCre+. Tissue-specific gene deletions of Sema7a mouse lines (Sema7a^loxP/loxP HbbCre+; Sema7a^loxP/loxP Myh6Cre+, […], and Sema7a^loxP/loxP LysMCre+) were used in the experiments. Sema7a^loxP/loxP Cre-negative (−) littermates were used as controls. […]
The Vectastain ABC kit (Linaris, Wertheim, Germany) was used for immunohistochemical staining. […] Histological sections were analyzed for the presence of PNCs by manual counting within 3 independent tissue sections of each animal at a magnification of […].
as §2

[5] = test system: GPlb-IL-4-tg platelets; test: Flow chamber: thrombus formation on collagen in flow, blood of GPlb-IL-4tg mice; format: cell-based, mouse; conditions: shear rate 1000 s−1
Method: as §1

[6] = test system: human cardiac myocytes (HMCs); test: Caspase 3 staining and caspase 3 ELISA in cardiac myocytes; format: cell-based; conditions: 1 μg/ml; cardiomyocytes
Method: Human cardiac myocytes (HMC-c; PromoCell, Heidelberg, Germany) were grown to confluence on chamber slides followed by 6 hours of stimulation with rhSEMA7A, rhlgG1 Fc, BSA, or staurosporine (Sigma-Aldrich, Munich, Germany), 1 μg/ml each. After fixation, cells were stained with rabbit polyclonal anticaspase3 (abcam, Cambridge, UK).

B1: rmSema7a: recombinant mouse Sema7a fusion protein (R&D SYSTEMS, Minneapolis, USA) (protein)
chain: QGHSRSGPRISAVWKGQDHVDFSQPEPHTVLFHEPGSFSVWVGGRGKVYHFNFPEGKNASVRTVNIGSTKGSCQDKQDCGNYITLLERRGNGLLVCGTNARKPSCWNLVNDSVVMSLGEMKGYAPFSPDENSLVLFEGDEVYSTIRKQEYNGKIPRFRRIRGESELYTSDTVMQNPQFIKATIVHQDQAYDDKIYYFFREDNPDKNPEAPLNVSRVAQLCRGDQGGESSLSVSKWNTFLKAMLVCSDAATNRNFNRLQDVFLLPDPSGQWRDTRVYGVFSNPWNYSAVCVYSLGDIDRVFRTSSLKGYHMGLPNPRPGMCLPKKQPIPTETFQVADSHPEVAQRVEPMGPLKTPLFHSKYHYQKVVVHRMQASNGETFHVLYLTTDRGTIHKVVESGDQDHSFVFNIMEIQPFHRAAAIQAISLDADRRKLYVTSQWEVSQVPLDMCEVYSGGCHGCLMSRDPYCGWDQDRCVSIYSSQRSVLQSINPAEPHRECPNPKPDEAPLQKVSLARNSRYYLTCPMESRHATYLWRHEENVEQSCEPGHQSPSCILFIENLTARQYGHYRCEAQEGSYLREAQHWELLPEDRALAEQLMGHARALA
modifications: left off: a dimerising Fc or GST
neutrophil adhesion [1]: affected neutrophil adhesion
adhesion and thrombus formation of WT platelets on collagen in flow ([2]; shear rate 400 s^−1): markedly enhances
adhesion and thrombus formation of WT platelets on collagen in flow ([2]; shear rate 1000 s^−1): markedly enhances
infarct size ([3]; 1 μg/mouse before reperfusion, compared with rmIgG2A Fc control): significantly increased infarct size
numbers of PNCs in tissue areas at risk (histological sections) ([3]; compared with Fc controls): decreased numbers of PNCs
tissue damage in histological sections ([3]; compared with Fc controls): increased tissue damage
PNCs extravasated into the myocardium in the AAR ([3]; flow cytometry): more PNCs extravasated
numbers of PNCs in the blood ([3]; flow cytometry): significantly increased numbers of PNCs
signals for GPlb, P-selectin, and activated integrin αIIbβ3 (JON/A) on conjugates in the AAR ([3]; flow cytometry): significantly increased signals
signals for the platelet markers GPlb, CD62P, and activated integrin αIIbβ3 (JON/A) on conjugates in blood ([3]; flow cytometry): stronger signals
troponin I ([3]; plasma, 120 min, compared with Fc control): increased troponin I
reduction in infarct size, plasma TnI and PNCs seen in Sema7a loxP/loxP HbbCre+ animals ([4]; injection of rmSema7a): these results were reversed
MIRI ([4]; ischemia 1 h, reperfusion 2 h, vs Fc control): increased MIRI
adhesion or thrombus formation of GPlb-IL-4-tg platelets on collagen in flow [5]: does not affect

B2: rhSEMA7A: recombinant human SEMA7A (protein, UniProt O75326 45-648, looked up)
Semaphorin-7A: QGHLRSGPRIFAVWKGHVGQDRVDFGQTEPHTVLFHEPGSSSVWVGGRGKVYLFDFPEGKNASVRTVNIGSTKGSCLDKRDCENYITLLERRSEGLLACGTNARHPSCWNLVNGTVVPLGEMRGYAPFSPDENSLVLFEGDEVYSTIRKQEYNGKIPRFRRIRGESELYTSDTVMQNPQFIKATIVHQDQAYDDKIYYFFREDNPDKNPEAPLNVSRVAQLCRGDQGGESSLSVSKWNTFLKAMLVCSDAATNKNFNRLQDVFLLPDPSGQWRDTRVYGVFSNPWNYSAVCVYSLGDIDKVFRTSSLKGYHSSLPNPRPGKCLPDQQPIPTETFQVADRHPEVAQRVEPMGPLKTPLFHSKYHYQKVAVHRMQASHGETFHVLYLTTDRGTIHKVVEPGEQEHSFAFNIMEIQPFRRAAAIQTMSLDAERRKLYVSSQWEVSQVPLDLCEVYGGGCHGCLMSRDPYCGWDQGRCISIYSSERSVLQSINPAEPHKECPNPKPDKAPLQKVSLAPNSRYYLSCPMESRHATYSWRHKENVEQSCEPGHQSPNCILFIENLTAQQYGHYFCEAQEGSYFREAQHWQLLPEDGIMAEHLLGHACALA
pro-apoptotic effect assessed by caspase 3 activation [6]: no direct pro-apoptotic effect
